According to patent US6277622:

Biological target: recombinant tropoelastin (human) (UniProt P15502)

percentage of total lysine in the precipitate (amino acid analysis) after 2 hrs at 37 C; formation of insoluble protein: 2.5 % lysine
Substance: recombinant human lysyl oxidase derived from the plasmid p3dL^m2 (enzyme)
